Laboratory results as given in US12357802B2, “Self-actuating articles” (priority 2017, dated 2025).

Test system: Micrococcus lysodeikticus cells
Assay: Lysozyme enzyme activity assay of dissolved micropost tips
Type: biochemical
Settings: micropost tips 80% lysozyme and 20% PEO 200 k, vs uncompressed powder
Experimental: To measure the activity of lysozyme, the assay provided by Sigma Aldrich was used which measures the amount of lysed Micrococcus lysodeikticus cells. Briefly, a 200 unit/mL Lysozyme solution in 50 mM Potassium Phosphate Buffer was added to a 0.015% [w/v]Micrococcus lysodeikticus cell suspension in the same buffer. The decrease was recorded in A450 over 5 minutes. Nine micropost tips were fabricated from 80% lysozyme and 20% PEO 200 k and dissolved sets of three micropost tips together. Triplicate assays were performed on each dissolved solution for a total of nine tests and the results were compared to the results of a solution made with lysozyme that was not compressed into a micropost tip.

Q: For lysozyme, which “enzymatic activity after the manufacturing process” value is on record?
A: maintain their activity
